± gives the uncertainty stated by the source.

This passage reports abundance fitness results from the Human Domainome abundance scans (Beltran et al. 2025).

B1: Max-interacting protein 1, residues 70 to 120; numbered along this chain, P50539 (parent)
chain: STHNELEKNRRAHLRLCLERLKVLIPLGPDCTRHTTLGLLNKAKAHIKKLE

The series covers variants of B1. Description: abundance fitness (aPCA) (normalised: wild type 0, dead -1); higher = more abundant; growth selection in yeast, the domain comes from the species named. Particulars: Homo sapiens.
For STHNELEKNTRAHLRLCLERLKVLIPLGPDCTRHTTLGLLNKAKAHIKKLE [R10T], the abundance fitness turned out to be 0.309 ± 0.14. Under STHNELEKNRRASLRLCLERLKVLIPLGPDCTRHTTLGLLNKAKAHIKKLE [H13S] stands -0.085 ± 0.094; under STHNELEKNRRANLRLCLERLKVLIPLGPDCTRHTTLGLLNKAKAHIKKLE [H13N], 0.093 ± 0.18; under STHNELEKNRRAMLRLCLERLKVLIPLGPDCTRHTTLGLLNKAKAHIKKLE [H13M], -0.156 ± 0.12.

Consider STHNELEKNRRAGLRLCLERLKVLIPLGPDCTRHTTLGLLNKAKAHIKKLE [H13G], for which the abundance fitness was found to be 0.124 ± 0.08.

STHNELEKNRRAQLRLCLERLKVLIPLGPDCTRHTTLGLLNKAKAHIKKLE [H13Q]: the abundance fitness is -0.086 ± 0.12. The result for STHNELEKNRRAKLRLCLERLKVLIPLGPDCTRHTTLGLLNKAKAHIKKLE [H13K] reads 0.26 ± 0.14. Take STHNELEKNRRACLRLCLERLKVLIPLGPDCTRHTTLGLLNKAKAHIKKLE [H13C]: the abundance fitness was -0.509 ± 0.17. As for STHNELEKNRRATLRLCLERLKVLIPLGPDCTRHTTLGLLNKAKAHIKKLE [H13T], the abundance fitness is -0.353 ± 0.15. As to STHNELEKNRRAALRLCLERLKVLIPLGPDCTRHTTLGLLNKAKAHIKKLE [H13A], the abundance fitness was -0.515 ± 0.097. As to STHNELEKNRRAVLRLCLERLKVLIPLGPDCTRHTTLGLLNKAKAHIKKLE [H13V], the abundance fitness was -0.339 ± 0.093. For the variant STHNELEKNRRAFLRLCLERLKVLIPLGPDCTRHTTLGLLNKAKAHIKKLE [H13F], the abundance fitness is -0.076 ± 0.13. For the variant STHNELEKNRRALLRLCLERLKVLIPLGPDCTRHTTLGLLNKAKAHIKKLE [H13L], the abundance fitness amounted to 0.02 ± 0.092. With STHNELEKNRRAYLRLCLERLKVLIPLGPDCTRHTTLGLLNKAKAHIKKLE [H13Y], the abundance fitness is -0.04 ± 0.14. Under STHNELEKNRRAPLRLCLERLKVLIPLGPDCTRHTTLGLLNKAKAHIKKLE [H13P] stands 0.064 ± 0.15; under STHNELEKNRRAILRLCLERLKVLIPLGPDCTRHTTLGLLNKAKAHIKKLE [H13I], -0.447 ± 0.22. On to STHNELEKNRRADLRLCLERLKVLIPLGPDCTRHTTLGLLNKAKAHIKKLE [H13D], for which the abundance fitness is -0.604 ± 0.15. As for STHNELEANRRAHLRLCLERLKVLIPLGPDCTRHTTLGLLNKAKAHIKKLE [K8A], the abundance fitness is -0.386 ± 0.089. Consider STHNELEWNRRAHLRLCLERLKVLIPLGPDCTRHTTLGLLNKAKAHIKKLE [K8W], for which the abundance fitness is -0.444 ± 0.11. The result for STHNELELNRRAHLRLCLERLKVLIPLGPDCTRHTTLGLLNKAKAHIKKLE [K8L] reads -0.232 ± 0.11. For the variant STHNELEPNRRAHLRLCLERLKVLIPLGPDCTRHTTLGLLNKAKAHIKKLE [K8P], the abundance fitness is -0.451 ± 0.14.

Turning to STHNELEGNRRAHLRLCLERLKVLIPLGPDCTRHTTLGLLNKAKAHIKKLE [K8G], the abundance fitness is -0.043 ± 0.087. Under STHNELENNRRAHLRLCLERLKVLIPLGPDCTRHTTLGLLNKAKAHIKKLE [K8N] stands -0.328 ± 0.18; under STHNELEFNRRAHLRLCLERLKVLIPLGPDCTRHTTLGLLNKAKAHIKKLE [K8F], -0.236 ± 0.13; under STHNELEDNRRAHLRLCLERLKVLIPLGPDCTRHTTLGLLNKAKAHIKKLE [K8D], -0.568 ± 0.13.

In the case of STHNELEYNRRAHLRLCLERLKVLIPLGPDCTRHTTLGLLNKAKAHIKKLE [K8Y], the abundance fitness is -0.619 ± 0.18. For STHNELEENRRAHLRLCLERLKVLIPLGPDCTRHTTLGLLNKAKAHIKKLE [K8E], the abundance fitness is -0.291 ± 0.11. Consider STHNELERNRRAHLRLCLERLKVLIPLGPDCTRHTTLGLLNKAKAHIKKLE [K8R], for which the abundance fitness was -0.353 ± 0.089.

Turning to STHNELEQNRRAHLRLCLERLKVLIPLGPDCTRHTTLGLLNKAKAHIKKLE [K8Q], the abundance fitness is -0.492 ± 0.22. As for STHNELETNRRAHLRLCLERLKVLIPLGPDCTRHTTLGLLNKAKAHIKKLE [K8T], the abundance fitness is -0.377 ± 0.12. Under STHNELECNRRAHLRLCLERLKVLIPLGPDCTRHTTLGLLNKAKAHIKKLE [K8C] stands -0.278 ± 0.15; under STHNELEMNRRAHLRLCLERLKVLIPLGPDCTRHTTLGLLNKAKAHIKKLE [K8M], -0.511 ± 0.14; under STHNELEHNRRAHLRLCLERLKVLIPLGPDCTRHTTLGLLNKAKAHIKKLE [K8H], -0.205 ± 0.14.

For STHNELEINRRAHLRLCLERLKVLIPLGPDCTRHTTLGLLNKAKAHIKKLE [K8I], the abundance fitness is -0.536 ± 0.23. On to STHNELEVNRRAHLRLCLERLKVLIPLGPDCTRHTTLGLLNKAKAHIKKLE [K8V], for which the abundance fitness is -0.338 ± 0.095. Take STHNELEKNRRAHPRLCLERLKVLIPLGPDCTRHTTLGLLNKAKAHIKKLE [L14P]: the abundance fitness was -0.064 ± 0.12. For the variant STHNELEKNRRAHDRLCLERLKVLIPLGPDCTRHTTLGLLNKAKAHIKKLE [L14D], the abundance fitness was -0.274 ± 0.18.

On to STHNELEKNRRAHKRLCLERLKVLIPLGPDCTRHTTLGLLNKAKAHIKKLE [L14K], for which the abundance fitness was -0.625 ± 0.16. Take STHNELEKNRRAHGRLCLERLKVLIPLGPDCTRHTTLGLLNKAKAHIKKLE [L14G]: the abundance fitness was -0.265 ± 0.083.

Take STHNELEKNRRAHTRLCLERLKVLIPLGPDCTRHTTLGLLNKAKAHIKKLE [L14T]: the abundance fitness is -0.368 ± 0.14. Regarding STHNELEKNRRAHVRLCLERLKVLIPLGPDCTRHTTLGLLNKAKAHIKKLE [L14V], the abundance fitness is -0.356 ± 0.092. For STHNELEKNRRAHSRLCLERLKVLIPLGPDCTRHTTLGLLNKAKAHIKKLE [L14S], the abundance fitness was -0.299 ± 0.089. For STHNELEKNRRAHMRLCLERLKVLIPLGPDCTRHTTLGLLNKAKAHIKKLE [L14M], the abundance fitness was -0.208 ± 0.11.

As to STHNELEKNRRAHFRLCLERLKVLIPLGPDCTRHTTLGLLNKAKAHIKKLE [L14F], the abundance fitness turned out to be 0.096 ± 0.15. For the variant STHNELEKNRRAHERLCLERLKVLIPLGPDCTRHTTLGLLNKAKAHIKKLE [L14E], the abundance fitness is -0.645 ± 0.16. Regarding STHNELEKNRRAHHRLCLERLKVLIPLGPDCTRHTTLGLLNKAKAHIKKLE [L14H], the abundance fitness was -0.143 ± 0.24. On to STHNELEKNRRAHRRLCLERLKVLIPLGPDCTRHTTLGLLNKAKAHIKKLE [L14R], for which the abundance fitness was -0.447 ± 0.086. As for STHNELEKNRRAHCRLCLERLKVLIPLGPDCTRHTTLGLLNKAKAHIKKLE [L14C], the abundance fitness is -0.315 ± 0.13. In the case of STHNELEKNRRAHARLCLERLKVLIPLGPDCTRHTTLGLLNKAKAHIKKLE [L14A], the abundance fitness was -0.197 ± 0.096. With STHNELEKNRRAHWRLCLERLKVLIPLGPDCTRHTTLGLLNKAKAHIKKLE [L14W], the abundance fitness was found to be 0.187 ± 0.091. For the variant STHNELEKNRRAHNRLCLERLKVLIPLGPDCTRHTTLGLLNKAKAHIKKLE [L14N], the abundance fitness was -0.735 ± 0.24.
